Data taken from the Human Domainome abundance scans (Beltran et al. 2025).
± gives the uncertainty stated by the source.

B1: RUN and FYVE domain-containing protein 1, residues 639 to 698; numbered along this chain, Q96T51 (parent)
chain: WLKDDEATHCRQCEKEFSISRRKHHCRNCGHIFCNTCSSNELALPSYPKPVRVCDSCHTL

Variants of: B1
Assay: abundance fitness (aPCA) (normalised: wild type 0, dead -1); higher = more abundant; growth selection in yeast, the domain comes from the species named
Details: Homo sapiens

Variant | abundance fitness
R11Q | 0.05 ± 0.048
H25K | 0.012 ± 0.058
P50Y | -0.219 ± 0.12
C10K | -0.766 ± 0.1
C26W | -0.748 ± 0.11
K15T | -0.154 ± 0.046
E14V | -0.41 ± 0.045
K3R | -0.618 ± 0.055
E16T | -0.339 ± 0.062
R21V | -0.054 ± 0.036
S20I | 0.028 ± 0.075
D4G | -0.228 ± 0.056
H58Q | 0.065 ± 0.044
F17D | -0.467 ± 0.087
T36A | 0.349 ± 0.041
L44Q | -0.3 ± 0.049
T59D | 0.062 ± 0.068
S38V | -0.008 ± 0.057
H58F | -0.105 ± 0.057
E6Y | -0.191 ± 0.075
N28W | -0.13 ± 0.043
P45R | 0.009 ± 0.034
S18C | 0.007 ± 0.046
R11F | -0.023 ± 0.056

Variant | abundance fitness
K3D | -0.539 ± 0.097
G30Q | -0.326 ± 0.055
T8V | -0.269 ± 0.046
H25Q | 0.169 ± 0.046
C26H | -0.628 ± 0.11
R21D | -1.25 ± 0.24
E6T | -0.014 ± 0.053
P45S | 0.027 ± 0.043
N28V | -0.285 ± 0.044
P48H | -0.192 ± 0.077
E41T | -0.11 ± 0.045
W1N | 0.251 ± 0.099
K23C | -0.176 ± 0.057
L42H | 0.118 ± 0.083
H9E | -0.418 ± 0.08
P45G | -0.204 ± 0.051
C34S | -0.758 ± 0.053
F33S | -0.47 ± 0.053
P45Y | -0.425 ± 0.075
H31R | -0.142 ± 0.037
C10V | -0.815 ± 0.059
D5M | 0.058 ± 0.044
K23F | -0.362 ± 0.069
C34W | -0.736 ± 0.067

Variant | abundance fitness
C10I | -0.636 ± 0.1
N35E | 0.331 ± 0.045
W1R | -0.182 ± 0.077
C13H | -0.975 ± 0.17
R11K | 0.229 ± 0.053
S56Q | 0.319 ± 0.049
K3L | -0.607 ± 0.061
E14H | -0.127 ± 0.081
C26V | -0.913 ± 0.082
C26F | -0.89 ± 0.14
K49N | 0.012 ± 0.09
D5W | -0.531 ± 0.055
S46R | 0.19 ± 0.045
C54G | -0.731 ± 0.25
N40T | -0.08 ± 0.046
W1K | 0.249 ± 0.1
R22M | 0.109 ± 0.047
S39C | -1.14 ± 0.23
K23Y | -0.575 ± 0.095
W1E | -0.138 ± 0.1
H31S | -0.225 ± 0.039
T59F | -0.207 ± 0.089
T8Y | -0.349 ± 0.065
Y47M | -0.134 ± 0.084

Variant | abundance fitness
R27V | -0.262 ± 0.038
P45I | -0.162 ± 0.061
R21M | -0.239 ± 0.045
C29F | -0.871 ± 0.098
S39F | -0.305 ± 0.11
R22Y | -0.356 ± 0.077
P48F | -0.818 ± 0.12
R27A | 0.189 ± 0.048
S39R | -0.011 ± 0.039
I19C | -1.15 ± 0.23
K15Q | -0.082 ± 0.047
A43S | -0.188 ± 0.043
A7K | -0.384 ± 0.09
S18W | -0.322 ± 0.048
S39H | -0.421 ± 0.09
D5R | -0.57 ± 0.043
H31V | -0.626 ± 0.054
D5E | -0.134 ± 0.056
H9A | 0.136 ± 0.047
Q12W | -0.69 ± 0.078
R11T | 0.044 ± 0.052
N40M | -0.021 ± 0.047
R11L | 0.161 ± 0.034
C29E | -0.666 ± 0.068

Variant | abundance fitness
W1L | -0.05 ± 0.064
N40I | -0.223 ± 0.2
W1D | 0.445 ± 0.13
F33G | -0.537 ± 0.069
L2Q | -0.023 ± 0.076
K23N | -0.491 ± 0.074
P50K | 0.023 ± 0.051
G30W | -0.235 ± 0.038
C10N | -0.837 ± 0.14
W1T | -0.286 ± 0.19
F17A | -0.927 ± 0.078
H24G | -0.515 ± 0.066
H58K | -0.091 ± 0.06
H31N | -0.237 ± 0.063
S38C | -0.029 ± 0.055
F33Q | -0.38 ± 0.061
T36Q | 0.403 ± 0.037
C37N | -0.282 ± 0.26
L2D | -0.006 ± 0.093
C26T | -0.832 ± 0.09
R27C | -0.067 ± 0.053
F33C | 0.059 ± 0.11
C57F | -0.794 ± 0.13
R27I | -0.077 ± 0.052

Variant | abundance fitness
C10W | -0.519 ± 0.06
L42R | 0.227 ± 0.035
C13W | -0.82 ± 0.073
A43P | 0.001 ± 0.04
P48Y | -0.582 ± 0.079
G30T | -0.77 ± 0.072
D4N | -0.018 ± 0.044
R27H | 0.316 ± 0.053
N40G | -0.03 ± 0.037
S20K | -0.018 ± 0.058
H58M | -0.109 ± 0.065
A43W | -0.405 ± 0.055
H58W | 0.022 ± 0.042
H31A | -0.204 ± 0.046
W1G | 0.131 ± 0.067
R27T | 0.095 ± 0.037
S18Y | -0.501 ± 0.093
Y47A | 0.014 ± 0.041
D4Y | -0.18 ± 0.064
S56N | 0.246 ± 0.078
H9G | -0.22 ± 0.05
K49D | -0.001 ± 0.1
Q12F | -0.458 ± 0.087
S38P | -0.727 ± 0.1

Variant | abundance fitness
C26K | -0.677 ± 0.12
R22I | -0.1 ± 0.065
K49S | -0.09 ± 0.042
E14D | -0.083 ± 0.07
H31P | -0.711 ± 0.076
S38T | -0.057 ± 0.047
I19Y | -0.341 ± 0.055
S46H | -0.004 ± 0.13
H31C | -0.445 ± 0.095
G30F | -0.945 ± 0.17
C57E | -0.711 ± 0.073
I32E | 0.074 ± 0.088
K15L | -0.188 ± 0.037
C29I | -1.11 ± 0.11
A43G | -0.124 ± 0.039
H25S | 0.07 ± 0.034
P48K | -0.178 ± 0.055
I32H | -0.24 ± 0.18
C29A | -1.03 ± 0.091
F17S | -0.709 ± 0.06
H58T | -0.226 ± 0.052
S20L | -0.147 ± 0.035
D4R | -0.22 ± 0.037
